Data taken from patent US20220324969A1 (MYTHIC THERAPEUTICS, published 2022).
Residue numbers refer to the chain shown, from its start. Names may count otherwise.

B1: MYT1166 (antibody, V domains shown)
VH: EVQLVQSGAEVKKPGSSVKVSCKASGYTITDHNIHWVRQAPGQSLEWIGYIHPYNGGTDYNQKFKNRATLTVDNPTNTAYMELSSLRSEDTDFYYCVNGNPWLAYWGQGTLVTVSS
VL: DIQLTQSPSTLSASVGDRVTITCRASESLDNYGIRFLTWFQQKPGKAPKLLMYAASNQGSGVPSRFSGSGSGTEFTLTISSLQPDDFATYYCQQTKEVPWSFGQGTKVEVK
notes: IgG; gemtuzumab VH combination #5 (S32H+Y52H)
B2: MYT1596 (antibody, V domains shown)
VH: B1 VH with H32S, H52Y
VL: B1 VL with D30H
notes: IgG; gemtuzumab VL variant #7 (D30H)
B3: MYT1601 (antibody, V domains shown)
VH: B1 VH with H32S, H52Y
VL: B1 VL with R35H
notes: IgG; gemtuzumab VL variant #12 (R35H)
B4: MYT1176 (antibody, V domains shown)
VH: B1 VH with I29H, H32S, G57H
VL: B1 VL
notes: IgG; gemtuzumab VH combination #15 (I29H+Y52H+G57H)
B5: MYT1612 (antibody, V domains shown)
VH: B1 VH with H32S, H52Y
VL: B1 VL with Q93H
notes: IgG; gemtuzumab VL variant #23 (Q93H)
B6: MYT1171 (antibody, V domains shown)
VH: B1 VH with H32S, H52Y, Y54H, G57H
VL: B1 VL
notes: IgG; gemtuzumab VH combination #10 (Y54H+G57H)
B7: MYT1169 (antibody, V domains shown)
VH: B1 VH with H32S, Y54H
VL: B1 VL
notes: IgG; gemtuzumab VH combination #8 (Y52H+Y54H)
B8: MYT1598 (antibody, V domains shown)
VH: B1 VH with H32S, H52Y
VL: B1 VL with Y32H
notes: IgG; gemtuzumab VL variant #9 (Y32H)
B9: MYT1179 (antibody, V domains shown)
VH: B1 VH with G57H
VL: B1 VL
notes: IgG; gemtuzumab VH combination #18 (S32H+Y52H+G57H)
B10: MYT1608 (antibody, V domains shown)
VH: B1 VH with H32S, H52Y
VL: B1 VL with N57H
notes: IgG; gemtuzumab VL variant #19 (N57H)
B11: MYT1181 (antibody, V domains shown)
VH: B1 VH with H32S, Y54H, G57H
VL: B1 VL
notes: IgG; gemtuzumab VH combination #20 (Y52H+Y54H+G57H)
B12: MYT1177 (antibody, V domains shown)
VH: B1 VH with I29H, H32S, H52Y, Y54H, G57H
VL: B1 VL
notes: IgG; gemtuzumab VH combination #16 (I29H+Y54H+G57H)
B13: MYT1606 (antibody, V domains shown)
VH: B1 VH with H32S, H52Y
VL: B1 VL with A55H
notes: IgG; gemtuzumab VL variant #17 (A55H)
B14: MYT1605 (antibody, V domains shown)
VH: B1 VH with H32S, H52Y
VL: B1 VL with A54H
notes: IgG; gemtuzumab VL variant #16 (A54H)
B15: MYT1604 (antibody, V domains shown)
VH: B1 VH with H32S, H52Y
VL: B1 VL with T38H
notes: IgG; gemtuzumab VL variant #15 (T38H)
B16: MYT1180 (antibody, V domains shown)
VH: B1 VH with H52Y, Y54H, G57H
VL: B1 VL
notes: IgG; gemtuzumab VH combination #19 (S32H+Y54H+G57H)
B17: MYT1599 (antibody, V domains shown)
VH: B1 VH with H32S, H52Y
VL: B1 VL with G33H
notes: IgG; gemtuzumab VL variant #10 (G33H)
B18: MYT1610 (antibody, V domains shown)
VH: B1 VH with H32S, H52Y
VL: B1 VL with G59H
notes: IgG; gemtuzumab VL variant #21 (G59H)
B19: MYT1609 (antibody, V domains shown)
VH: B1 VH with H32S, H52Y
VL: B1 VL with Q58H
notes: IgG; gemtuzumab VL variant #20 (Q58H)
B20: MYT1594 (antibody, V domains shown)
VH: B1 VH with H32S, H52Y
VL: B1 VL with S28H
notes: IgG; gemtuzumab VL variant #5 (S28H)
B21: MYT1178 (antibody, V domains shown)
VH: B1 VH with Y54H
VL: B1 VL
notes: IgG; gemtuzumab VH combination #17 (S32H+Y52H+Y54H)
B22: MYT1597 (antibody, V domains shown)
VH: B1 VH with H32S, H52Y
VL: B1 VL with N31H
notes: IgG; gemtuzumab VL variant #8 (N31H)
B23: MYT1602 (antibody, V domains shown)
VH: B1 VH with H32S, H52Y
VL: B1 VL with F36H
notes: IgG; gemtuzumab VL variant #13 (F36H)
B24: MYT1593 (antibody, V domains shown)
VH: B1 VH with H32S, H52Y
VL: B1 VL with E27H
notes: IgG; gemtuzumab VL variant #4 (E27H)
B25: MYT1614 (antibody, V domains shown)
VH: B1 VH with H32S, H52Y
VL: B1 VL with T95H
notes: IgG; gemtuzumab VL variant #25 (T95H)
B26: MYT1168 (antibody, V domains shown)
VH: B1 VH with H52Y, G57H
VL: B1 VL
notes: IgG; gemtuzumab VH combination #7 (S32H+G57H)
B27: MYT1613 (antibody, V domains shown)
VH: B1 VH with H32S, H52Y
VL: B1 VL with Q94H
notes: IgG; gemtuzumab VL variant #24 (Q94H)
B28: MYT1590 (antibody, V domains shown)
VH: B1 VH with H32S, H52Y
VL: B1 VL with R24H
notes: IgG; gemtuzumab VL variant #1 (R24H)
B29: MYT1611 (antibody, V domains shown)
VH: B1 VH with H32S, H52Y
VL: B1 VL with S60H
notes: IgG; gemtuzumab VL variant #22 (S60H)
B30: MYT1607 (antibody, V domains shown)
VH: B1 VH with H32S, H52Y
VL: B1 VL with S56H
notes: IgG; gemtuzumab VL variant #18 (S56H)
B31: MYT1170 (antibody, V domains shown)
VH: B1 VH with H32S, G57H
VL: B1 VL
notes: IgG; gemtuzumab VH combination #9 (Y52H+G57H)
B32: MYT1167 (antibody, V domains shown)
VH: B1 VH with H52Y, Y54H
VL: B1 VL
notes: IgG; gemtuzumab VH combination #6 (S32H+Y54H)
B33: MYT1174 (antibody, V domains shown)
VH: B1 VH with I29H, H52Y, G57H
VL: B1 VL
notes: IgG; gemtuzumab VH combination #13 (I29H+S32H+G57H)

Target: CD33 (Sino Biological, Cat #12238-H08H) (UniProt P20138 18-259)
Experiment: BLI, IgG captured on anti-human Fc sensor, 50 nM CD33, pH 7.4 vs pH 5.4

Sequence of CD33 (Sino Biological, Cat #12238-H08H) (P20138 18-259 limits assumed): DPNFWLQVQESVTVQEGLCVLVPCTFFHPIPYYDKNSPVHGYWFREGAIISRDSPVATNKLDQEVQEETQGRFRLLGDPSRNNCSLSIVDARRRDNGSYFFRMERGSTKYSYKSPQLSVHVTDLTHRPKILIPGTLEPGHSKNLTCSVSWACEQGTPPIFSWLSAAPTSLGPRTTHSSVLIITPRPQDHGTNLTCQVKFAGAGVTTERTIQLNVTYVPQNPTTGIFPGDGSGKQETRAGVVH

| Binder | binding result |
| --- | --- |
| B1 | binds |
| B2 | binds |
| B3 | binds |
| B4 | binds |
| B5 | binds |
| B6 | binds |
| B7 | binds |
| B8 | binds |
| B9 | binds |
| B10 | binds |
| B11 | binds |
| B12 | binds |
| B13 | binds |
| B14 | binds |
| B15 | binds |
| B16 | binds |
| B17 | binds |

| Binder | binding result |
| --- | --- |
| B18 | binds |
| B19 | binds |
| B20 | binds |
| B21 | binds |
| B22 | binds |
| B23 | binds |
| B24 | binds |
| B25 | binds |
| B26 | binds |
| B27 | binds |
| B28 | binds |
| B29 | binds |
| B30 | binds |
| B31 | binds |
| B32 | binds |
| B33 | binds |
